The results in this text go back to patent publication US20140377216A1, “ANTICANCER FUSION PROTEIN” (ADAMED SP. Z.O.O., priority 2011, published 2014).

In this assay the test system is HCT116. In words: MTT cytotoxicity test on HCT116. Format: cell-based, human. The settings on record: continuous incubation over 72 h. For orientation: Tetrazolium assays rely on reduction of a dye to a coloured formazan, in cell work by metabolically active cells.

B1: Ex. 3^a: fusion protein SEQ. No. 3: (TRAIL121-281)-MMP-UROKIN-(SEQ. No. 35, synthetic 15-amino acids lytic peptide) (protein)
chain: RVAAHITGTRGRSNTLSSPNSKNEKALGRKINSWESSRSGHSFLSNLHLRNGELVIHEKGFYYIYSQTYFRFQEEIKENTKNDKQMVQYIYKYTSYPDPILLMKSARNSCWSKDAEYGLYSIYQGGIFELKENDRIFVSVTNEHLIDMDHEASFFGAFLVGPLGLAGRVVRKLLLRLLKKLLRLLK
modifications: synthesized, fusion protein comprising: a fragment of TRAIL protein, synthetic 15-amino acids lytic peptid and cleavage site sequences recognized by urokinase and metalloprotease.
For B1, the IC50 turned out to be 1.8785 µg/mL.

By IC50 is commonly meant the point on the concentration scale where inhibition reaches its midpoint. Read a high IC50 as lower potency.
